According to the RNAGym collection of RNA variant scans (doi:10.1073/pnas.2313332121):
Variants at the floor of the assay were thinned out.

B1: TPR 5TU (parent)
chain: GGAUCUUCUCGAUCUAACAAAAAAGACAAAUCUGCCACAAAGCUUGAGAGCAUCUUCGGAUGCAGAGGCGGCAGCCUUCGGUGGCGCGAUAGCGCCAACGUUCUCAACUAUGACACGCAAAACGCGUGCUCCGUUGAAUGGAGUUUAUCAUG

Variants of: B1
Experiment: polymerase ribozyme fitness, log enrichment relative to wild type (log ratio); higher = more active; in vitro selection for triplet polymerase activity
Summary of the method: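 Libraries of mutants in each subunit of a heterodimeric triplet polymerase ribozyme were generated by PCR and transcribed. In triplicate, each went through one in vitro selection round: annealing with biotinylated primer, partner subunit and triplets; frozen incubation at −7 °C; gel excision of extended constructs; streptavidin-bead capture; RT-PCR. Fitness, taken from Illumina sequencing of input and output libraries, is the logarithm of a genotype's enrichment over wild-type enrichment, averaged across replicates with inverse-variance weights. The logarithm is base 2, and genotypes needed ≥10 input reads and ≥1 read per output to be kept.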

Variant | polymerase ribozyme fitness (log ratio)
G62C G94A G133C G141U | -3.95
C35A A60C U102G | ≤ -4.2
A66C A91G A98U C131A U139A | ≤ -4.2
C35U U82C | 0.243
A21C C93A | -2.02
U56G G84C C116U | -4.17
A19U U144A | -0.138
C38A U109A C114U C116G | ≤ -4.2
A20C C57U G59C G62C G124A | -0.9
A30U A49C G58A A119C G128U U134G | ≤ -4.2
C14U G25C C38G G67A C69A C96U A121G A147C | ≤ -4.2
A41U G86U C125U U127G | -4.16
G92U A138G | -3.48
A29C A39C U53A A122G C123A U135G U146A | ≤ -4.2
A23C A30U G50A C54A C93G C95U G124A | ≤ -4.2
C10A U13G G25C G34U U61A C63U G68C U77C C79A G86A | ≤ -4.2
A52G C87U C116G A122C G136U | -2.85
U44G A73G A91G A107C | ≤ -4.2
C75U G136A | 1.26
A29U A39C A40U U45G U77G | ≤ -4.2
C27U C93U | -3.3

Variant | polymerase ribozyme fitness (log ratio)
A30C G92A G100C | ≤ -4.2
A52C G84A U130C | -0.715
A22C A23G C93G C149U | ≤ -4.2
C27G G83A | -4.12
A19U C43U A73U C79U A106U A107C | ≤ -4.2
C10U U55G | -3.19
G34A A120C | 0.113
A19C C27A C125U U148G | ≤ -4.2
A30G C76A C95A | ≤ -4.2
C85U C99G | -1.07
A12C U13C A26C C27G G70A C96G | ≤ -4.2
C38U A47G U53A G141C | -2.86
A3U U15G A19C A39C U44G U55A C57U A60G C63A G84A A110U A120C | ≤ -4.2
A89U A97U U101A A107C A121C G140U U148G | ≤ -4.2
A121G U127C | -2.42
A21G C57A G74A C76G C87U G124U | ≤ -4.2
A19G A41C G59A G62A A73U C118G A150U | ≤ -4.2
A40G U55G U56A G88C | ≤ -4.2
A16U A37U A52C G112U U139A | ≤ -4.2
G46U U77G C87U A89U C93A G124U | ≤ -4.2
G65U U82A C93U C95G | ≤ -4.2

Variant | polymerase ribozyme fitness (log ratio)
C38U A40G | -2.26
G84A G140U | -2.64
A23G U101A | -3.18
U53A G59C A60G G84A | -1.76
U53A G70C C76A G86U A98U | ≤ -4.2
A30U U134C | -3.45
C8A G50U G74C G80A C85U U139C G141C | ≤ -4.2
C18G U31G A52G G80C U101C U127G | ≤ -4.2
G58C C95U | -0.651
C8U U33A C38U G62A | ≤ -4.2
A24U G92U | 0.213
A37U A52U C57U G74A C76U C93U C95U U109G | ≤ -4.2
C14A C87A A97U G143A | ≤ -4.2
C93U U146G | -1.47
A41C A47C G88U A97U | -4.03
U7C U15G A41U A52G C96A | -3.52
A52G U53A G84A | -0.8
U7A G58C | -3.68
C54A G59U A60C G83A C116A | -2.11
G83U C129A | -4.02
A21C A29U C43A U55A G83A A107C | ≤ -4.2

Variant | polymerase ribozyme fitness (log ratio)
U6A A19G C38G U61A G94C C103G | ≤ -4.2
A47C C85U C118U U130A | -3.62
A49G G117A | -0.467
G58C A60G G92A A121U | -2.24
A52C | -0.883
A20U A26C G84U C103G A106C C108G | ≤ -4.2
C8U C27U A37C U55A C87G U111A C118G G124A | ≤ -4.2
U4G C35A C79A G94A U148G | ≤ -4.2
U31C C85G A98G | -1.26
G46U G58U A89U U102G C118G C129A G152U | ≤ -4.2
C14U G143A | -1.26
U6C G42U U77G C87U A122U | ≤ -4.2
U4G G58A | 0.794
C87G C105A | ≤ -4.2
A60C C93A A98U A122C | -2.61
C72U A73U G83A | -2.51
U4A U6G A22U U31G C35U U56A G68C C95U C125G U144C | ≤ -4.2
A39G G48A U56A C76A C79U C105U | ≤ -4.2
C14A C27G | ≤ -4.2
C27U C87U A142U | -3.03
